Experimental data published in US20100191096A1, “PARAMAGNETIC BIOMOLECULE COMPLEXES AND USES THEREOF IN THE ASSESSMENT OF ORGAN FUNCTION” (priority 2007, published 2010).

Columns and labels:
[1] = tested on: renal cortex; assay: T1 weighted MRI of rat kidneys after i.v. contrast agent (contrast enhancement in renal cortex); details: 20 minutes after 30 seconds in vivo i.v. infusion of 800 μl Ringer solution containing ~1 mg complex
Description: The MRI hardware used to obtain the date in the figures described below is a Pharmascan 7T small animal MR scanner (from Bruker Biospin MRI GmbH, Ettlingen, Germany). The software is Paravision version 4 (from Bruker Biospin MR GmbH). Dynamic imaging was performed using a Flash sequence, with 2 mm slice thickness, 256×256 matrix, field of view (FOV) 6 cm, TR15.576 ms, TE3.7 ms, 250 evolution cycles, scan time 12 mins 27 sec. T1 weighted imaging was performed using a Flash T1 sequence, with 2 mm slice thickness, 256×256 matrix, FOV 6 cm, TR15.57 ms, TE3.7 ms, 10 averages, scan time 30 secs. T2 weighted imaging was performed using a Turbo RARE T2 sequence, with 2 mm slice thickness, 256×256 matrix, FOV 6 cm, TR4200 ms, TE36 ms, 3 averages, scan time 6 mins 47 secs.

[2] = tested on: kidney (glomeruli, proximal tubular cells); details: cited from earlier work

Substance	contrast enhancement, T1 weighted MRI of coronal sections of rat kidneys (ex vivo) [1]	time at which breakdown products can be detected in plasma after i.v. injection ([2]; labelled aprotinin, i.v. injection)	renal handling of native aprotinin (filtration, tubular uptake) ([2]; rat, in vivo)
Gd-DTPA-Lysozyme: Complex of chicken egg white lysozyme linked via DTPA chelator to Gadolinium, Example 2 standard protocol	selectively enhanced the contrast in the renal cortex		
aprotinin		20 min	freely filtered in the glomeruli and quantitatively taken up into proximal tubular cells
